From patent publication US20200362034A1

Target: human glucagon ligand peptide-1 receptor (GLP1R) (human) (UniProt P43220)
Assay: cell-based or functional assay

Sequence of human glucagon ligand peptide-1 receptor (GLP1R) (human) (P43220 24-463): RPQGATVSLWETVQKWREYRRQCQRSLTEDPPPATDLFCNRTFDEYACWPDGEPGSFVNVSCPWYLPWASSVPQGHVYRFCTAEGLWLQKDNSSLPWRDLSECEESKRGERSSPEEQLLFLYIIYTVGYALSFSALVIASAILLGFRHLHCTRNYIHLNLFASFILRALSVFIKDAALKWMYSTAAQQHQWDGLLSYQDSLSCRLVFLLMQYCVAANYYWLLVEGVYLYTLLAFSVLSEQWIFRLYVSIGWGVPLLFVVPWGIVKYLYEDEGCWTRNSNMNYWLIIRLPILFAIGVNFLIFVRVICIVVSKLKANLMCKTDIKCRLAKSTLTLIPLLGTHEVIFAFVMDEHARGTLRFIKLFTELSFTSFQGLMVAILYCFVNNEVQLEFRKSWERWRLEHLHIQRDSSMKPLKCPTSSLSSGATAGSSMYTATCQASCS

Extendin-4 (peptide)
EC 50 (nM), cAMP Hunter bioassay on CHO-K1 cells overexpressing human GLP1R: 0.46 nM
